According to PMC5620161, “Remarkably similar CTLA-4 binding properties of therapeutic ipilimumab and tremelimumab antibodies” (Oncotarget, 2017):

Biological target: T1, ectodomain of human CTLA-4 (aa 31-161) (human, UniProt P16410-1)
T1 construct: CTLA-4, human, ectodomain, residues 31-161 of UniProt P16410-1; Homodimer held by a disulfide bond (non-reducing SDS-PAGE and crystal structure); Cloned into pET-21a; also called extracellular domain of CTLA-4
Assay: SPR; BIAcore T100, CM5 chip, CTLA-4 immobilised (5 μg/ml), scFv flowed at 6.25-200 nM, room temperature, HBS-EP (150 mM NaCl, 10 mM HEPES pH 7.4, 0.005% Tween-20), 1:1 Langmuir model
Settings: both partners purified

T1 sequence (P16410 31-161): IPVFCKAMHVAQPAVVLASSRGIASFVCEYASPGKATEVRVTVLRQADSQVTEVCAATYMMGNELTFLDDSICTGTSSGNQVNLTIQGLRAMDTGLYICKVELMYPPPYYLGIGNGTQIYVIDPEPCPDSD

B1: scFv fragment of tremelimumab (scFv, V domains shown)
VH: QVQLVESGGGVVQPGRSLRLSCAASGFTFSSYGMHWVRQAPGKGLEWVAVIWYDGSNKYYADSVKGRFTISRDNSKNTLYLQMNSLRAEDTAVYYCARDPRGATLYYYYYGMDVWGQGTTVTVSS
VL: DIQMTQSPSSLSASVGDRVTITCRASQSINSYLDWYQQKPGKAPKLLIYAASSLQSGVPSRFSGSGSGTDFTLTISSLQPEDFATYYCQQYYSTPFTFGPGTKVEIK
notes: VL of tremelimumab (IGKV1-39 framework); the Fab of tremelimumab is in PDB 5GGV; linker, printed as GG(GGSGG)3GG; VH of tremelimumab (IGHV3-33 framework); Built as VL-GG(GGSGG)3GG-VH in pET21a; The parent antibody is an IgG2; only the scFv was made here; also called tremelimumab-scFv; CP-675,206
  Kd: 5.89 nM
  koff: 0.0018 s⁻¹
  kon: 308000 M⁻¹ s⁻¹
